Reference: the supplement of paper PMC11316812
± gives the standard deviation of the averaged measurements.

How the values were obtained:
MCF7 = assay: percentage of EdU-negative (G0-arrested) nuclei per well, 72 h; higher = more G0 arrest; conditions: reference: sequence is the full UniProt precursor, the tested protein was the secreted form or ectodomain
hTERT-HMEC = assay: as above; conditions: reference: sequence is the full UniProt precursor, the tested protein was the secreted form or ectodomain
[1] = protein concentration 0.0211825 µM
[2] = protein concentration 0.211825 µM
[3] = protein concentration 0.0225 µM
[4] = protein concentration 0.0294286 µM
[5] = protein concentration 0.294286 µM
[6] = protein concentration 0.014515 µM
[7] = protein concentration 0.14515 µM
[8] = protein concentration 0.00975 µM
[9] = protein concentration 0.0975 µM
[10] = protein concentration 0.01775 µM
[11] = protein concentration 0.1775 µM
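Further: secreted proteins added to cultured cells, EdU pulse at the end, nuclei found by Hoechst imaging, EdU status from nuclear versus surrounding ring intensity ratio, PBS as neutral control.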

Sequence | percentage of EdU-negative (MCF7; [3]) [%] | percentage of EdU-negative (MCF7; protein concentration 0.225 µM) [%] | percentage of EdU-negative (hTERT-HMEC; [3]) [%] | percentage of EdU-negative (hTERT-HMEC; protein concentration 0.225 µM) [%] | further results
MARVLGAPVALGLWSLCWSLAIATPLPPTSAHGNVAEGETKPDPDVTERCSDGWSFDATTLDDNGTMLFFKGEFVWKSHKWDRELISERWKNFPSPVDAAFRQGHNSVFLIKGDKVWVYPPEKKEKGYPKLLQDEFPGIPSPLDAAVECHRGECQAEGVLFFQGDREWFWDLATGTMKERSWPAVGNCSSALRWLGRYYCFQGNQFLRFDPVRGEVPPRYPRDVRDYFMPCPGRGHGHRNGTGHGNSTHHGPEYMRCSPHLVLSALTSDNHGATYAFSGTHYWRLDTSRDGWHSWPIAHQWPQGPSAVDAAFSWEEKLYLVQGTQVYVFLTKGGYTLVSGYPKRLEKEVGTPHGIILDSVDAAFICPGSSRLHIMAGRRLWWLDLKSGAQATWTELPWPHEKVDGALCMEKSLGPNSCSANGPGLYLIHGPNLYCYSDVEKLNAAKALPQPQNVTSLLGCTH | – | – | – | – | percentage of EdU-negative (MCF7; [1]): 26.5 ± 0.3%; percentage of EdU-negative (MCF7; [2]): 26.7 ± 0.95%; percentage of EdU-negative (hTERT-HMEC; [1]): 5.25 ± 0.85%; percentage of EdU-negative (hTERT-HMEC; [2]): 6.11 ± 0.9%
MARVLKAAAANAVGLFSRLQAPIPTVRASSTSQPLDQVTGSVWNLGRLNHVAIAVPDLEKAAAFYKNILGAQVSEAVPLPEHGVSVVFVNLGNTKMELLHPLGRDSPIAGFLQKNKAGGMHHICIEVDNINAAVMDLKKKKIRSLSEEVKIGAHGKPVIFLHPKDCGGVLVELEQA [Q96PE7] | 23.93 ± 0.19 | 23.1 ± 1.4 | 5.15 ± 0.63 | 6.08 ± 0.26 | –
MARYMLLLLLAVWVLTGELWPGAEARAAPYGVRLCGREFIRAVIFTCGGSRWRRSDILAHEAMGDTFPDADADEDSLAGELDEAMGSSEWLALTKSPQAFYRGRPSWQGTPGVLRGSRDVLAGLSSSCCKWGCSKSEISSLC [Q8WXF3] | 26.3 ± 1.9 | 26.3 ± 0.94 | 4.41 ± 0.39 | 5.85 ± 0.42 | –
MASEIHMTGPMCLIENTNGRLMANPEALKILSAITQPMVVVAIVGLYRTGKSYLMNKLAGKKKGFSLGSTVQSHTKGIWMWCVPHPKKPGHILVLLDTEGLGDVEKGDNQNDSWIFALAVLLSSTFVYNSIGTINQQAMDQLYYVTELTHRIRSKSSPDENENEVEDSADFVSFFPDFVWTLRDFSLDLEADGQPLTPDEYLTYSLKLKKGTSQKDETFNLPRLCIRKFFPKKKCFVFDRPVHRRKLAQLEKLQDEELDPEFVQQVADFCSYIFSNSKTKTLSGGIQVNGPRLESLVLTYVNAISSGDLPCMENAVLALAQIENSAAVQKAIAHYEQQMGQKVQLPTETLQELLDLHRDSEREAIEVFIRSSFKDVDHLFQKELAAQLEKKRDDFCKQNQEASSDRCSALLQVIFSPLEEEVKAGIYSKPGGYRLFVQKLQDLKKKYYEEPRKGIQAEEILQTYLKSKESMTDAILQTDQTLTEKEKEIEVERVKAESAQASAKMLQEMQRKNEQMMEQKERSYQEHLKQLTEKMENDRVQLLKEQERTLALKLQEQEQLLKEGFQKESRIMKNEIQDLQTKMRRRKACTIS | 26.5 ± 3.6 | 29.1 ± 1.2 | 4.44 ± 0.5 | 12.6 ± 1.4 | –
MASHSGPSTSVLFLFCCLGGWLASHTLPVRLLRPSDDVQKIVEELQSLSKMLLKDVEEEKGVLVSQNYTLPCLSPDAQPPNNIHSPAIRAYLKTIRQLDNKSVIDEIIEHLDKLIFQDAPETNISVPTDTHECKRFILTISQQFSECMDLALKSLTSGAQQATT [Q6EBC2] | 26.6 ± 1.1 | 24.9 ± 1.8 | 4.96 ± 0.56 | 5.69 ± 0.58 | –
MASLRVERAGGPRLPRTRVGRPAALRLLLLLGAVLNPHEALAQPLPTTGTPGSEGGTVKNYETAVQFCWNHYKDQMDPIEKDWCDWAMISRPYSTLRDCLEHFAELFDLGFPNPLAERIIFETHQIHFANCSLVQPTFSDPPEDVLLAMIIAPICLIPFLITLVVWRSKDSEAQA | 26.4 ± 3.1 | 23.7 ± 0.28 | 4.96 ± 0.83 | 5.12 ± 0.077 | –
MASPGCLLCVLGLLLCGAASLELSRPHGDTAKKPIIGILMQKCRNKVMKNYGRYYIAASYVKYLESAGARVVPVRLDLTEKDYEILFKSINGILFPGGSVDLRRSDYAKVAKIFYNLSIQSFDDGDYFPVWGTCLGFEELSLLISGECLLTATDTVDVAMPLNFTGGQLHSRMFQNFPTELLLSLAVEPLTANFHKWSLSVKNFTMNEKLKKFFNVLTTNTDGKIEFISTMEGYKYPVYGVQWHPEKAPYEWKNLDGISHAPNAVKTAFYLAEFFVNEARKNNHHFKSESEEEKALIYQFSPIYTGNISSFQQCYIFD | – | – | – | – | percentage of EdU-negative (MCF7; [4]): 25 ± 0.49%; percentage of EdU-negative (MCF7; [5]): 25.9 ± 2.2%; percentage of EdU-negative (hTERT-HMEC; [4]): 4.45 ± 0.47%; percentage of EdU-negative (hTERT-HMEC; [5]): 4.7 ± 0.28%
MASPGCLWLLAVALLPWTCASRALQHLDPPAPLPLVIWHGMGDSCCNPLSMGAIKKMVEKKIPGIYVLSLEIGKTLMEDVENSFFLNVNSQVTTVCQALAKDPKLQQGYNAMGFSQGGQFLRAVAQRCPSPPMINLISVGGQHQGVFGLPRCPGESSHICDFIRKTLNAGAYSKVVQERLVQAEYWHDPIKEDVYRNHSIFLADINQERGINESYKKNLMALKKFVMVKFLNDSIVDPVDSEWFGFYRSGQAKETIPLQETSLYTQDRLGLKEMDNAGQLVFLATEGDHLQLSEEWFYAHIIPFLG | 25.6 ± 1.6 | 26.4 ± 0.39 | 4.49 ± 0.2 | 9.52 ± 0.25 | –
MASRLTLLTLLLLLLAGDRASSNPNATSSSSQDPESLQDRGEGKVATTVISKMLFVEPILEVSSLPTTNSTTNSATKITANTTDEPTTQPTTEPTTQPTIQPTQPTTQLPTDSPTQPTTGSFCPGPVTLCSDLESHSTEAVLGDALVDFSLKLYHAFSAMKKVETNMAFSPFSIASLLTQVLLGAGENTKTNLESILSYPKDFTCVHQALKGFTTKGVTSVSQIFHSPDLAIRDTFVNASRTLYSSSPRVLSNNSDANLELINTWVAKNTNNKISRLLDSLPSDTRLVLLNAIYLSAKWKTTFDPKKTRMEPFHFKNSVIKVPMMNSKKYPVAHFIDQTLKAKVGQLQLSHNLSLVILVPQNLKHRLEDMEQALSPSVFKAIMEKLEMSKFQPTLLTLPRIKVTTSQDMLSIMEKLEFFDFSYDLNLCGLTEDPDLQVSAMQHQTVLELTETGVEAAAASAISVARTLLVFEVQQPFLFVLWDQQHKFPVFMGRVYDPRA | – | – | – | – | percentage of EdU-negative (MCF7; [6]): 25.6 ± 1.5%; percentage of EdU-negative (MCF7; [7]): 26 ± 0.75%; percentage of EdU-negative (hTERT-HMEC; [6]): 5.48 ± 0.2%; percentage of EdU-negative (hTERT-HMEC; [7]): 5.33 ± 0.56%
MASRWAVQLLLVAAWSMGCGEALKCYTCKEPMTSASCRTITRCKPEDTACMTTLVTVEAEYPFNQSPVVTRSCSSSCVATDPDSIGAAHLIFCCFRDLCNSEL | 23.5 ± 2.8 | 26.6 ± 1.9 | 5.43 ± 0.94 | 5.61 ± 1 | –
MASSWKLMLFLSVTMCLSEYSKSLPGLSTSYAALLRIKKSSSSSLFGSKTRPRYSSPSLGTLSASSPSWLGAAQNYYSPINLYHSSDAFKQDESVDYGPVFVQEPDDIIFPTDSDEKKVALNCEVRGNPVPSYRWLRNGTEIDLESDYRYSLIDGTFIISNPSEAKDSGHYQCLATNTVGSILSREATLQFAYLGNFSGRTRSAVSVREGQGVVLMCSPPPHSPEIIYSWVFNEFPSFVAEDSRRFISQETGNLYISKVQTSDVGSYICLVKNTVTNARVLSPPTPLTLRNDGVMGEYEPKIEVHFPFTVTAAKGTTVKMECFALGNPVPTITWMKVNGYIPSKARLRKSQAVLEIPNVQLDDAGIYECRAENSRGKNSFRGQLQVYTYPHWVEKLNDTQLDSGSPLRWECKATGKPRPTYRWLKNGVPLSPQSRVEMVNGVLMIHNVNQSDAGMYQCLAENKYGAIYASAELKILASAPTFALNQLKKTIIVTKDQEVVIECKPQGSPKPTISWKKGDRAVRENKRIAILPDGSLRILNASKSDEGKYVCRGENVFGSAEIIASLSVKEPTRIELTPKRTELTVGESIVLNCKAIHDASLDVTFYWTLKGQPIDFEEEGGHFESIRAQASSADLMIRNILLMHAGRYGCRVQTTADSVSDEAELLVRGPPGPPGIVIVEEITESTATLSWSPAADNHSPISSYNLQARSPFSLGWQTVKTVPEIITGDMESAMAVDLNPWVEYEFRVVATNPIGTGDPSTPSRMIRTNEAVPKTAPTNVSGRSGRRHELVIAWEPVSEEFQNGEGFGYIVAFRPNGTRGWKEKMVTSSEASKFIYRDESVPPLTPFEVKVGVYNNKGDGPFSQIVVICSAEGEPSAAPTDVKATSVSVSEILVAWKHIKESLGRPQGFEVGYWKDMEQEDTAETVKTRGNESFVILTGLEGNTLYHFTVRAYNGAGYGPPSSEVSATTKKSPPSQAPSNLRWEQQGSQVSLGWEPVIPLANESEVVGYKVFYRQEGHSNSQVIETQKLQAVVPLPDAGVYIIEVRAYSEGGDGTASSQIRVPSYSGGKITSAQSTLHSLSTSSSSVTLLLALMIPSTSW | – | – | – | – | percentage of EdU-negative (MCF7; [8]): 26.6 ± 0.15%; percentage of EdU-negative (MCF7; [9]): 27.7 ± 2.5%; percentage of EdU-negative (hTERT-HMEC; [8]): 4.88 ± 0.2%; percentage of EdU-negative (hTERT-HMEC; [9]): 10.4 ± 0.39%
MASTSYDYCRVPMEDGDKRCKLLLGIGILVLLIIVILGVPLIIFTIKANSEACRDGLRAVMECRNVTHLLQQELTEAQKGFQDVEAQAATCNHTVMALMASLDAEKAQGQKKVEELEGEITTLNHKLQDASAEVERLRRENQVLSVRIADKKYYPSSQDSSSAAAPQLLIVLLGLSALLQ | 26.3 ± 3.5 | 26.7 ± 3.2 | 4.74 ± 0.69 | 4.84 ± 0.58 | –
MASVVLPSGSQCAAAAAAAAPPGLRLRLLLLLFSAAALIPTGDGQNLFTKDVTVIEGEVATISCQVNKSDDSVIQLLNPNRQTIYFRDFRPLKDSRFQLLNFSSSELKVSLTNVSISDEGRYFCQLYTDPPQESYTTITVLVPPRNLMIDIQKDTAVEGEEIEVNCTAMASKPATTIRWFKGNTELKGKSEVEEWSDMYTVTSQLMLKVHKEDDGVPVICQVEHPAVTGNLQTQRYLEVQYKPQVHIQMTYPLQGLTREGDALELTCEAIGKPQPVMVTWVRVDDEMPQHAVLSGPNLFINNLNKTDNGTYRCEASNIVGKAHSDYMLYVYDPPTTIPPPTTTTTTTTTTTTTILTIITDSRAGEEGSIRAVDHAVIGGVVAVVVFAMLCLLIILGRYFARHKGTYFTHEAKGADDAADADTAIINAEGGQNNSEEKKEYFI [Q9BY67] | 24.5 ± 1.3 | 24.7 ± 1.1 | 4.74 ± 0.29 | 5.2 ± 0.79 | –
MASWLRRKLRGKRRPVIAFCLLMILSAMAVTRFPPQRPSAGPDPGPMEPQGVTGAPATHIRQALSSSRRQRARNMGFWRSRALPRNSILVCAEEQGHRARVDRSRESPGGDLRHPGRVRRDITLSGHPRLSTQHVVLLREDEVGDPGTKDLGHPQHGSPIQETQSEVVTLVSPLPGSDMAALPAWRATSGLTLWPHTAEGRDLLGAENRALTGGQQAEDPTLASGAHQWPGSVEKLQGSVWCDAETLLSSSRTGGQAPPWLTDHDVQMLRLLAQGEVVDKARVPAHGQVLQVGFSTEAALQDLSSPRLSQLCSQGLCGLIKRPGDLPEVLSFHVDRVLGLRRSLPAVARRFHSPLLPYRYTDGGARPVIWWAPDVQHLSDPDEDQNSLALGWLQYQALLAHSCNWPGQAPCPGIHHTEWARLALFDFLLQVHDRLDRYCCGFEPEPSDPCVEERLREKCQNPAELRLVHILVRSSDPSHLVYIDNAGNLQHPEDKLNFRLLEGIDGFPESAVKVLASGCLQNMLLKSLQMDPVFWESQGGAQGLKQVLQTLEQRGQVLLGHIQKHNLTLFRDEDP [Q9UFP1] | – | – | – | – | percentage of EdU-negative (MCF7; [10]): 25.4 ± 2.1%; percentage of EdU-negative (MCF7; [11]): 24.5 ± 4.3%; percentage of EdU-negative (hTERT-HMEC; [10]): 4.53 ± 0.69%; percentage of EdU-negative (hTERT-HMEC; [11]): 4.83 ± 0.99%
